The values below come from the Human Domainome abundance scans (Beltran et al. 2025).

B1: Formin-binding protein 4, residues 200 to 261; numbered along this chain, Q8N3X1 (parent)
chain: SGWQYDTQCSLAGVGIEMGDWQEVWDENTGCYYYWNTQTNEVTWELPQYLATQVQGLQHYQP

± gives the uncertainty stated by the source.

This data set covers variants of B1. Kind of data set: abundance fitness (aPCA) (normalised: wild type 0, dead -1); higher = more abundant; growth selection in yeast, the domain comes from the species named. The conditions noted are these: Homo sapiens.
As to SGWQYDTQCSLAGVGIEMGDWQEVWDENTYCYYYWNTQTNEVTWELPQYLATQVQGLQHYQP [G30Y], the abundance fitness was -0.473 ± 0.21. Turning to SGWQYDTQCSLAGVGIEMGDWQEVWDENTACYYYWNTQTNEVTWELPQYLATQVQGLQHYQP [G30A], the abundance fitness is -0.095 ± 0.063. As for SGWQYDTQCSLAGVGIEMGDWQEVWDENTQCYYYWNTQTNEVTWELPQYLATQVQGLQHYQP [G30Q], the figure is 0.049 ± 0.086; as for SGWQYDTQCSLAGVGIEMGDWQEVWDENTSCYYYWNTQTNEVTWELPQYLATQVQGLQHYQP [G30S], 0.006 ± 0.088. For the variant SGWQYDTQCSLAGVGIEMGDWQEVWDENTPCYYYWNTQTNEVTWELPQYLATQVQGLQHYQP [G30P], the abundance fitness is -0.219 ± 0.13. For the variant SGWQYDTQCSLAGVGIEMGDWQEVWDENTICYYYWNTQTNEVTWELPQYLATQVQGLQHYQP [G30I], the abundance fitness worked out at 0.052 ± 0.16. SGWQYDTQCSLAGVGIEMGDWQEVWDENTVCYYYWNTQTNEVTWELPQYLATQVQGLQHYQP [G30V]: the abundance fitness is -0.191 ± 0.057.

Take SGWQYDTQCSLAGVGIEMGDWQEVWDENTNCYYYWNTQTNEVTWELPQYLATQVQGLQHYQP [G30N]: the abundance fitness is -0.15 ± 0.16.

On to SGWQYDTQCSLAGVGIEMGDWQEVWDENTKCYYYWNTQTNEVTWELPQYLATQVQGLQHYQP [G30K], for which the abundance fitness was 0.129 ± 0.093. As for SGWQYDTQCSLAGVGIEMGDWQEVWDENTHCYYYWNTQTNEVTWELPQYLATQVQGLQHYQP [G30H], the figure is -0.718 ± 0.24; as for SGWQYDTQCSLAGVGIEMGDWQEVWDENTWCYYYWNTQTNEVTWELPQYLATQVQGLQHYQP [G30W], -0.23 ± 0.08; as for SGWQYDTQCSLAGVGIEMGDWQEVWDENTRCYYYWNTQTNEVTWELPQYLATQVQGLQHYQP [G30R], 0.078 ± 0.053. As for SGWQYDTQCSLAGVGIEMGDWQEVWDENTLCYYYWNTQTNEVTWELPQYLATQVQGLQHYQP [G30L], the figure is -0.4 ± 0.082; as for SGWQYDTQCSLAGVGIEMGDWQEVWDENTFCYYYWNTQTNEVTWELPQYLATQVQGLQHYQP [G30F], -0.381 ± 0.12; as for SGWQYDTQCSLAGVGIEMGDWQEVWDENTGCKYYWNTQTNEVTWELPQYLATQVQGLQHYQP [Y32K], -1.02 ± 0.18. Consider SGWQYDTQCSLAGVGIEMGDWQEVWDENTGCFYYWNTQTNEVTWELPQYLATQVQGLQHYQP [Y32F], for which the abundance fitness was -0.009 ± 0.1.

With SGWQYDTQCSLAGVGIEMGDWQEVWDENTGCLYYWNTQTNEVTWELPQYLATQVQGLQHYQP [Y32L], the abundance fitness is -0.633 ± 0.071. As to SGWQYDTQCSLAGVGIEMGDWQEVWDENTGCCYYWNTQTNEVTWELPQYLATQVQGLQHYQP [Y32C], the abundance fitness is -0.478 ± 0.15. For SGWQYDTQCSLAGVGIEMGDWQEVWDENTGCHYYWNTQTNEVTWELPQYLATQVQGLQHYQP [Y32H], the abundance fitness was -0.16 ± 0.14. As for SGWQYDTQCSLAGVGIEMGDWQEVWDENTGCEYYWNTQTNEVTWELPQYLATQVQGLQHYQP [Y32E], the figure is -0.673 ± 0.091. As for SGWQYDTQCSLAGVGIEMGDWQEVWDENTGCMYYWNTQTNEVTWELPQYLATQVQGLQHYQP [Y32M], the figure is -0.511 ± 0.097; as for SGWQYDTQCSLAGVGIEMGDWQEVWDENTGCIYYWNTQTNEVTWELPQYLATQVQGLQHYQP [Y32I], -0.3 ± 0.13; as for SGWQYDTQCSLAGVGIEMGDWQEVWDENTGCNYYWNTQTNEVTWELPQYLATQVQGLQHYQP [Y32N], -0.487 ± 0.16.

SGWQYDTQCSLAGVGIEMGDWQEVWDENTGCAYYWNTQTNEVTWELPQYLATQVQGLQHYQP [Y32A]: the abundance fitness was -0.502 ± 0.079. Regarding SGWQYDTQCSLAGVGIEMGDWQEVWDENTGCGYYWNTQTNEVTWELPQYLATQVQGLQHYQP [Y32G], the abundance fitness was -0.678 ± 0.081. Regarding SGWQYDTQCSLAGVGIEMGDWQEVWDENTGLYYYWNTQTNEVTWELPQYLATQVQGLQHYQP [C31L], the abundance fitness was -0.183 ± 0.058.

For SGWQYDTQCSLAGVGIEMGDWQEVWDENTGWYYYWNTQTNEVTWELPQYLATQVQGLQHYQP [C31W], the abundance fitness was -0.662 ± 0.12. As for SGWQYDTQCSLAGVGIEMGDWQEVWDENTGGYYYWNTQTNEVTWELPQYLATQVQGLQHYQP [C31G], the figure is -0.125 ± 0.057; as for SGWQYDTQCSLAGVGIEMGDWQEVWDENTGRYYYWNTQTNEVTWELPQYLATQVQGLQHYQP [C31R], 0.165 ± 0.056; as for SGWQYDTQCSLAGVGIEMGDWQEVWDENTGPYYYWNTQTNEVTWELPQYLATQVQGLQHYQP [C31P], -0.742 ± 0.14. As for SGWQYDTQCSLAGVGIEMGDWQEVWDENTGTYYYWNTQTNEVTWELPQYLATQVQGLQHYQP [C31T], the figure is -0.094 ± 0.071; as for SGWQYDTQCSLAGVGIEMGDWQEVWDENTGIYYYWNTQTNEVTWELPQYLATQVQGLQHYQP [C31I], -0.326 ± 0.092. Turning to SGWQYDTQCSLAGVGIEMGDWQEVWDENTGNYYYWNTQTNEVTWELPQYLATQVQGLQHYQP [C31N], the abundance fitness stood at 0.107 ± 0.12. As for SGWQYDTQCSLAGVGIEMGDWQEVWDENTGSYYYWNTQTNEVTWELPQYLATQVQGLQHYQP [C31S], the figure is 0.031 ± 0.059. With SGWQYDTQCSLAGVGIEMGDWQEVWDENTGAYYYWNTQTNEVTWELPQYLATQVQGLQHYQP [C31A], the abundance fitness was 0.01 ± 0.063. Take SGWQYDTQCSLAGVGIEMGDWQEVWDENTGYYYYWNTQTNEVTWELPQYLATQVQGLQHYQP [C31Y]: the abundance fitness was -0.063 ± 0.11. Take SGWQYDTQCSLAGVGIEMGDWQEVWDENTGFYYYWNTQTNEVTWELPQYLATQVQGLQHYQP [C31F]: the abundance fitness amounted to 0.083 ± 0.077.

With SGWQYDTQCSLAGVGIEMGDWQEVWDENTGHYYYWNTQTNEVTWELPQYLATQVQGLQHYQP [C31H], the abundance fitness is -0.017 ± 0.12.

Regarding SGWQYDTQCSLAGVGIEMGDWQEVWDENTGEYYYWNTQTNEVTWELPQYLATQVQGLQHYQP [C31E], the abundance fitness is -0.422 ± 0.093.

With SGWQYDTQCSLAGVGIEMGDWQEVWDENTGKYYYWNTQTNEVTWELPQYLATQVQGLQHYQP [C31K], the abundance fitness was 0.066 ± 0.088.

Take SGWQYDTQCSLAGVGIEMGDWQEVWDENTGVYYYWNTQTNEVTWELPQYLATQVQGLQHYQP [C31V]: the abundance fitness is -0.129 ± 0.059. As to SGWQYDTQCSLAGVGIEMGDWQEVWDENTGMYYYWNTQTNEVTWELPQYLATQVQGLQHYQP [C31M], the abundance fitness was -0.127 ± 0.086. As to SGWQYDTQCSLAGVGIEMGDWQEVWDENTGQYYYWNTQTNEVTWELPQYLATQVQGLQHYQP [C31Q], the abundance fitness was -0.038 ± 0.1.
